Measurements: PMC4622713

Tests used:
[1] = biological target: CT-P13 (Remsima®, infliximab biosimilar); experiment: ELISA
[2] = biological target: Remicade® (infliximab, reference medicinal product); experiment: ELISA
FcRn = FcRn (UniProt P55899); experiment: SPR
Chain of UniProt P55899 (P55899 whole entry, looked up, tested part not stated): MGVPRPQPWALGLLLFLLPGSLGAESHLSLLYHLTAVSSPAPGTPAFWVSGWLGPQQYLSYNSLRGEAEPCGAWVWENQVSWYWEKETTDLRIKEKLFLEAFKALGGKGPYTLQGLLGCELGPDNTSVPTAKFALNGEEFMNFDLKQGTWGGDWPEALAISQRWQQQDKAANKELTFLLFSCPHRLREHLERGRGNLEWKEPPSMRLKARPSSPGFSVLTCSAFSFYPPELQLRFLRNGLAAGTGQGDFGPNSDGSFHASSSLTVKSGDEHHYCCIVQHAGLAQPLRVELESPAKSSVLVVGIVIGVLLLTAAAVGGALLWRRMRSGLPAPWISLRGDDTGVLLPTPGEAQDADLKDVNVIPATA

relative binding affinity, average (%) [1] [%] | relative binding affinity, average (%) [2] [%] | relative binding affinity, average (%) (FcRn) | Substance
100 | 98 |  | C1q (complex)
 |  | 101 | CT-P13 (Remsima®, infliximab biosimilar) (antibody)
 |  | 97 | Remicade® (infliximab, reference medicinal product) (antibody)
